Results as given in patent US20210292396A1.

Assays:
Assay in all cases: cell-based or functional assay
[1] = target: HIV Env of isolate CNE7 (HIV)
[2] = target: Env of HIV isolate SF162.LS (clade B) (HIV)
[3] = target: Env of HIV isolate A03349M1.vrc4a (clade D) (HIV)
[4] = target: Env of HIV isolate KER2018.11 (clade A) (HIV)
[5] = target: Env of HIV isolate JRCSF.JB (clade B) (HIV)
[6] = target: Env of HIV isolate 25710-2.43 (clade C) (HIV)
[7] = target: HIV Env of isolate NKU3006.ec1 (HIV)
[8] = target: Env of HIV isolate 16055-2.3 (clade C) (HIV)
[9] = target: HIV Env of isolate 3168.v4.c10 (HIV)
[10] = target: Env of HIV isolate BX08.16 (clade B) (HIV)
[11] = target: HIV Env of isolate 25925-2.22 (HIV)
[12] = target: HIV Env of isolate DU156.12 (HIV)
[13] = target: Env of HIV isolate X1254.c3 (clade G) (HIV)
[14] = target: Env of HIV isolate SC422.8 (clade B) (HIV)
[15] = target: Env of HIV isolate X2278.C2.B6 (clade B) (HIV)
[16] = target: HIV Env of isolate 6644.v2.c33 (HIV)
[17] = target: HIV Env of isolate 25710-2.43 (HIV)
[18] = target: Env of HIV isolate CNE14 (clade B) (HIV)
[19] = target: Env of HIV isolate BJOX010000.06.2 (clade AE) (HIV)
[20] = target: Env of HIV isolate 6644.v2.c33 (clade C) (HIV)
[21] = target: HIV Env of isolate ZM197.7 (HIV)
[22] = target: Env of HIV isolate 0439.v5.c1 (clade A) (HIV)
[23] = target: Env of HIV isolate TZBD.02 (clade C) (HIV)
[24] = target: Env of HIV isolate 45_01dG5 (clade B) (HIV)
[25] = target: HIV Env of isolate 3337.v2.c6 (HIV)
[26] = target: Env of HIV isolate TRO.11 (clade B) (HIV)
[27] = target: Env of HIV isolate BB539.2B13 (clade A) (HIV)
[28] = target: HIV Env of isolate 26191-2.48 (HIV)
[29] = target: Env of HIV isolate 231965.c01 (clade D) (HIV)
[30] = target: Env of HIV isolate C3347.c11 (clade AE) (HIV)
[31] = target: Env of HIV isolate CH119.10 (clade BC) (HIV)
[32] = target: HIV Env of isolate CH117.4 (HIV)
[33] = target: HIV Env of isolate DU172.17 (HIV)
[34] = target: Env of HIV isolate BJOX002000.03.2 (clade BC) (HIV)
[35] = target: Env of HIV isolate T257-31 (clade AG) (HIV)
[36] = target: Env of HIV isolate CH117.4 (clade BC) (HIV)
[37] = target: HIV Env of isolate P0402.c2.11 (HIV)
[38] = target: Env of HIV isolate RHPA.7 (clade B) (HIV)
[39] = target: Envelope of SVA.MLV
[40] = target: Env of HIV isolate 235-47 (clade AG) (HIV)
[41] = target: Env of HIV isolate YU2.DG (clade B) (HIV)
[42] = target: Env of HIV isolate 3637.v5.c3 (clade C) (HIV)
[43] = target: HIV Env of isolate 57128.vrc15 (HIV)
[44] = target: Env of HIV isolate 6322.v4.c1 (clade C) (HIV)
[45] = target: HIV Env of isolate 6838.v1.c35 (HIV)
[46] = target: HIV Env of isolate TZBD.02 (HIV)
[47] = target: Env of HIV isolate 426c (clade C) (HIV)
[48] = target: Env of HIV isolate 3468.v1.c12 (clade AD) (HIV)
[49] = target: Env of HIV isolate CAP244.D3 (clade C) (HIV)
[50] = target: Env of HIV isolate MB201.A1 (clade A) (HIV)

B1: ePGT121.18 (ePGT121.18.H1 VH and ePGT121.17.L1 VL) (antibody, V domains shown)
VH: QMQLQESGPGLVKPGETLSLTCSVSGASISSSYWSWLRETPGKGLEWIGYTHHSGDTNYAPSLKSRVHLGLHPSKNQVSLSLTSVTAADTAVYYCARTLHGRRIYGVVAFNEYYTYFYWPTWGKGTQVTVSS
VL: SDISVAPGETVRITCGGESIGSRAVQWYQHRPGQAPRLIIYNNQDRPPGIPERFSGSPDIDFGTTATLTISNVEAGDEATYYCHIWDSRRPTNWELGPGTTLTVL
IC80, pseudovirus neutralization (M1) [1]: 8 ng/mL | IC80, pseudovirus neutralization (M2) [1]: 7 ng/mL | IC50, pseudovirus neutralization [2]: 2 ng/mL | IC50, pseudovirus neutralization [3]: 2 ng/mL | IC50, pseudovirus neutralization [4]: > 50 µg/mL | IC50, pseudovirus neutralization [5]: 3 ng/mL | IC50, pseudovirus neutralization [6]: 4 ng/mL | IC80, pseudovirus neutralization (M1) [7]: > 50 µg/mL | IC80, pseudovirus neutralization (M2) [7]: > 50 µg/mL | IC50, pseudovirus neutralization [8]: 0.011 µg/mL | IC80, pseudovirus neutralization (M1) [9]: 0.034 µg/mL | IC80, pseudovirus neutralization (M2) [9]: 0.045 µg/mL | IC50, pseudovirus neutralization [10]: 3 ng/mL | IC80, pseudovirus neutralization (M1) [11]: 8 ng/mL | IC80, pseudovirus neutralization (M2) [11]: 0.01 µg/mL | IC80, pseudovirus neutralization (M1) [12]: 3 ng/mL | IC80, pseudovirus neutralization (M2) [12]: 3 ng/mL | IC50, pseudovirus neutralization [13]: 2 ng/mL | IC50, pseudovirus neutralization [14]: 0.005 µg/mL | IC50, pseudovirus neutralization [15]: 1 ng/mL | IC80, pseudovirus neutralization (M1) [16]: 5 ng/mL | IC80, pseudovirus neutralization (M2) [16]: 6 ng/mL | IC80, pseudovirus neutralization (M1) [17]: 0.01 µg/mL | IC80, pseudovirus neutralization (M2) [17]: 0.013 µg/mL | IC50, pseudovirus neutralization [18]: 1 ng/mL | IC50, pseudovirus neutralization [19]: > 50 µg/mL | IC50, pseudovirus neutralization [20]: 2 ng/mL | IC80, pseudovirus neutralization (M1) [21]: > 50 µg/mL | IC80, pseudovirus neutralization (M2) [21]: > 50 µg/mL | IC50, pseudovirus neutralization [22]: 5.67 µg/mL | IC50, pseudovirus neutralization [23]: 2 ng/mL | IC50, pseudovirus neutralization [24]: 1 ng/mL | IC80, pseudovirus neutralization (M1) [25]: 1.25 µg/mL | IC80, pseudovirus neutralization (M2) [25]: 1.43 µg/mL | IC50, pseudovirus neutralization [26]: 2 ng/mL | IC50, pseudovirus neutralization [27]: > 50 µg/mL | IC80, pseudovirus neutralization (M1) [28]: 8 ng/mL | IC80, pseudovirus neutralization (M2) [28]: 0.013 µg/mL | IC50, pseudovirus neutralization [29]: 9.17 µg/mL | IC50, pseudovirus neutralization [30]: > 50 µg/mL | IC50, pseudovirus neutralization [31]: 4 ng/mL | IC80, pseudovirus neutralization (M1) [32]: > 50 µg/mL | IC80, pseudovirus neutralization (M2) [32]: > 50 µg/mL | IC80, pseudovirus neutralization (M1) [33]: 5 ng/mL | IC80, pseudovirus neutralization (M2) [33]: 5 ng/mL | IC50, pseudovirus neutralization [34]: 2 ng/mL | IC50, pseudovirus neutralization [35]: > 50 µg/mL | IC50, pseudovirus neutralization [36]: > 50 µg/mL | IC80, pseudovirus neutralization (M1) [37]: 4 ng/mL | IC80, pseudovirus neutralization (M2) [37]: 5 ng/mL | IC50, pseudovirus neutralization [38]: 2 ng/mL | IC80, pseudovirus neutralization (M1) [39]: > 50 µg/mL | IC80, pseudovirus neutralization (M2) [39]: > 50 µg/mL | IC50, pseudovirus neutralization [40]: 0.006 µg/mL | IC50, pseudovirus neutralization [41]: 3 ng/mL | IC50, pseudovirus neutralization [42]: > 50 µg/mL | IC80, pseudovirus neutralization (M1) [43]: 9 ng/mL | IC80, pseudovirus neutralization (M2) [43]: 0.01 µg/mL | IC50, pseudovirus neutralization [44]: > 50 µg/mL | IC80, pseudovirus neutralization (M1) [45]: 2.59 µg/mL | IC80, pseudovirus neutralization (M2) [45]: 13.4 µg/mL | IC80, pseudovirus neutralization (M1) [46]: 4 ng/mL | IC80, pseudovirus neutralization (M2) [46]: 6 ng/mL | IC50, pseudovirus neutralization [47]: 0.065 µg/mL | IC50, pseudovirus neutralization [48]: 1 ng/mL | IC50, pseudovirus neutralization [49]: 21.2 µg/mL | IC50, pseudovirus neutralization [50]: 1 ng/mL

B2: ePGT121.18.17 (ePGT121.18.H17 VH and ePGT121.17.L1 VL) (antibody, V domains shown)
VH: QMQLQESGPGLVKPGETLSLTCSVSGASISSSYWSWLRETPGKGLEWIGYTHHSGDTNYAPSLKSRVTIGLDPSKNQVSLSLTSVTAADTAVYYCARTLHGRRIYGVVAFNEYYTYFYWPTWGKGTQVTVSS
VL: SDISVAPGETVRITCGGESIGSRAVQWYQHRPGQAPRLIIYNNQDRPPGIPERFSGSPDIDFGTTATLTISNVEAGDEATYYCHIWDSRRPTNWELGPGTTLTVL
IC80, pseudovirus neutralization [1]: 0.017 µg/mL | IC50, pseudovirus neutralization [2]: 3 ng/mL | IC50, pseudovirus neutralization [3]: 9 ng/mL | IC50, pseudovirus neutralization [4]: > 50 µg/mL | IC50, pseudovirus neutralization [5]: 7 ng/mL | IC50, pseudovirus neutralization [6]: 8 ng/mL | IC80, pseudovirus neutralization [7]: > 50 µg/mL | IC50, pseudovirus neutralization [8]: 0.036 µg/mL | IC80, pseudovirus neutralization [9]: 0.171 µg/mL | IC50, pseudovirus neutralization [10]: 4 ng/mL | IC80, pseudovirus neutralization [11]: 0.021 µg/mL | IC80, pseudovirus neutralization [12]: 6 ng/mL | IC50, pseudovirus neutralization [13]: 6 ng/mL | IC50, pseudovirus neutralization [14]: 0.016 µg/mL | IC50, pseudovirus neutralization [15]: 3 ng/mL | IC80, pseudovirus neutralization [16]: 0.015 µg/mL | IC80, pseudovirus neutralization [17]: 0.026 µg/mL | IC50, pseudovirus neutralization [18]: 3 ng/mL | IC50, pseudovirus neutralization [19]: > 50 µg/mL | IC50, pseudovirus neutralization [20]: 5 ng/mL | IC80, pseudovirus neutralization [21]: > 50 µg/mL | IC50, pseudovirus neutralization [22]: > 50 µg/mL | IC50, pseudovirus neutralization [23]: 3 ng/mL | IC50, pseudovirus neutralization [24]: 3 ng/mL | IC80, pseudovirus neutralization [25]: 1.34 µg/mL | IC50, pseudovirus neutralization [26]: 5 ng/mL | IC50, pseudovirus neutralization [27]: > 50 µg/mL | IC80, pseudovirus neutralization [28]: 0.025 µg/mL | IC50, pseudovirus neutralization [29]: > 50 µg/mL | IC50, pseudovirus neutralization [30]: > 50 µg/mL | IC50, pseudovirus neutralization [31]: 13 ng/mL | IC80, pseudovirus neutralization [32]: > 50 µg/mL | IC80, pseudovirus neutralization [33]: 0.018 µg/mL | IC50, pseudovirus neutralization [34]: 4 ng/mL | IC50, pseudovirus neutralization [35]: > 50 µg/mL | IC50, pseudovirus neutralization [36]: > 50 µg/mL | IC80, pseudovirus neutralization [37]: 9 ng/mL | IC50, pseudovirus neutralization [38]: 4 ng/mL | IC80, pseudovirus neutralization [39]: > 50 µg/mL | IC50, pseudovirus neutralization [40]: 0.022 µg/mL | IC50, pseudovirus neutralization [41]: 11 ng/mL | IC50, pseudovirus neutralization [42]: > 50 µg/mL | IC80, pseudovirus neutralization [43]: 0.038 µg/mL | IC50, pseudovirus neutralization [44]: > 50 µg/mL | IC80, pseudovirus neutralization [45]: 4.34 µg/mL | IC80, pseudovirus neutralization [46]: 0.013 µg/mL | IC50, pseudovirus neutralization [47]: 0.26 µg/mL | IC50, pseudovirus neutralization [48]: 4 ng/mL | IC50, pseudovirus neutralization [49]: > 50 µg/mL | IC50, pseudovirus neutralization [50]: 4 ng/mL
